From article PMC6192996, “Loss of a conserved salt bridge in bacterial glycosyl hydrolase BgIM-G1 improves substrate binding in temperate environments” (Communications Biology, 2018)

How the values were obtained:
BglM-G1 = biological target: T1, BglM-G1 (marine metagenome, UniProt Z9E642Q5N2); experiment: X-ray crystal structure, […] Å, soaked crystals; assay type: binding; details: 6 mM ligand soak 24 h, pH 7.5, 18 °C; active site
T1 construct: codon-optimised synthetic gene in pOE, E. coli BL21(DE3); N-terminal MHHHHHHENLYFQGH tag TEV-cleaved, scar GH; theoretical mass 49,874 Da; monomer in solution
T1 sequence (Z9E642Q5N2 16-455 H90R): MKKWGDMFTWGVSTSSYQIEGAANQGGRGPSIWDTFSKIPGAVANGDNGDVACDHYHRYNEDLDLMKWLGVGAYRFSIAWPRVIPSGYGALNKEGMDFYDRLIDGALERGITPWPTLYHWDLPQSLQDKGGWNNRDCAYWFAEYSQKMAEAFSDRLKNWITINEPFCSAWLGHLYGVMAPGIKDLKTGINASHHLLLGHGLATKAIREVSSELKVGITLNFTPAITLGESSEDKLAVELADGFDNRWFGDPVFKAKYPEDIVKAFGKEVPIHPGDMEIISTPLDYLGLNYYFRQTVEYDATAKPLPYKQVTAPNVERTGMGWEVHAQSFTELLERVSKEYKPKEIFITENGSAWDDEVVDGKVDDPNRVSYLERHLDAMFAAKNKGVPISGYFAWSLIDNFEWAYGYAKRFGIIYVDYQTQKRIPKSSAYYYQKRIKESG

[1] = system: C[C@H]1O[C@@H](Oc2ccc([N+](=O)[O-])cc2)[C@H](O)[C@@H](O)[C@H]1O; experiment: purified protein; details: 100 mM sodium citrate pH 6.0, 45 °C
[2] = system: O=[N+]([O-])c1ccc(O[C@@H]2O[C@H](CO)[C@@H](O)[C@H](O)[C@H]2O)cc1; experiment: purified protein; details: 100 mM sodium citrate pH 6.0, 45 °C

| Compound | X-ray crystal structure, 1.55 Å, soaked crystals (BglM-G1) | Km [1] [µM] | kcat [1] [s⁻¹] | kcat/Km [1] [M⁻¹ s⁻¹] | Km [2] [µM] | kcat [2] [s⁻¹] | kcat/Km [2] [M⁻¹ s⁻¹] |
| --- | --- | --- | --- | --- | --- | --- | --- |
| OC[C@H]1NC[C@H](O)[C@@H](O)[C@@H]1O [1-deoxynojirimycin] | we co-crystallized the H75R variant with the glucosidase inhibitor 1-deoxynojirimycin | – | – | – | – | – | – |
| BglM-G1 (marine metagenome) | – | 88 ± 38 | 41.4 ± 3 | 519000 ± 146000 | 135 ± 16 | 55.6 ± 1.5 | 417000 ± 44000 |
